Experiment [1] deals with microtubules (polymerized tubulin) (UniProt Q6B856).
Experiment [2] concerns the target filamentous actin (F-actin), non-muscle actin (UniProt P60709).

microtubules (polymerized tubulin), sequence (Q6B856 whole entry, looked up): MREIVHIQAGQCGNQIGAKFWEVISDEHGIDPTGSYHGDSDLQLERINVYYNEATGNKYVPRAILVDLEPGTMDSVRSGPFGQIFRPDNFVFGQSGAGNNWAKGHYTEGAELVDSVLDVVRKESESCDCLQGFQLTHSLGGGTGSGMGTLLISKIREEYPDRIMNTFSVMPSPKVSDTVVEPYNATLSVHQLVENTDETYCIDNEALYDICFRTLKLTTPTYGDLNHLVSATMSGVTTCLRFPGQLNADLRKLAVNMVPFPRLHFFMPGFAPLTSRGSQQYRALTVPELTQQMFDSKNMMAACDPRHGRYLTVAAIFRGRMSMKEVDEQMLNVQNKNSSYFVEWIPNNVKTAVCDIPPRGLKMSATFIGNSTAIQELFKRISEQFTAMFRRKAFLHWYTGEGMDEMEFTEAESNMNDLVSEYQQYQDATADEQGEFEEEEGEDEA
G2L3-CH (calponin homology domain of GAS2-like 3), sequence (Q86XJ1 48-168): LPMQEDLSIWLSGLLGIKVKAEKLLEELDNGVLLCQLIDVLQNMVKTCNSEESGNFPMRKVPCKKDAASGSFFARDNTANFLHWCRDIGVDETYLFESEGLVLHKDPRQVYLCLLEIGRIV
G2L3-ΔGAR (GAS2-like 3 lacking the GAR domain), GFP-tagged, sequence (Q86XJ1 whole entry, stated change not applied, the tested form may be a part): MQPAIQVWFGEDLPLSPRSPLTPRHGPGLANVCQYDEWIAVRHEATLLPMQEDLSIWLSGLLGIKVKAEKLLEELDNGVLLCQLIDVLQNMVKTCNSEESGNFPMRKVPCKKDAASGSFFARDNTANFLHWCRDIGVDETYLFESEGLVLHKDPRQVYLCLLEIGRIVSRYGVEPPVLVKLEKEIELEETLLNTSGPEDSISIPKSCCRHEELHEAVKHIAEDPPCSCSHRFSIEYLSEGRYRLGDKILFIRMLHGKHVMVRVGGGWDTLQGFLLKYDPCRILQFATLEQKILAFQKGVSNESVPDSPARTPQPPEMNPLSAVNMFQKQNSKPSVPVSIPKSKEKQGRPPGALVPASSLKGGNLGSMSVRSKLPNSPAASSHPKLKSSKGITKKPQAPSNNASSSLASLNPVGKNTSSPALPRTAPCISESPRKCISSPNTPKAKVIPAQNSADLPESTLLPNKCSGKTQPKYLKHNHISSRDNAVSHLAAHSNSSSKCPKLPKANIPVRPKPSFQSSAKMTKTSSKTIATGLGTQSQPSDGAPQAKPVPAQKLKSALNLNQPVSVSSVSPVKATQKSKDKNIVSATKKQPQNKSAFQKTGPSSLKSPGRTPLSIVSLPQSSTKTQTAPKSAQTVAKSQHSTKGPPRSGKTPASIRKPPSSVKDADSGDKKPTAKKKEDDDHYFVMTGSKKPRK

“G2L3-ΔCH (GAS2-like 3 lacking the CH domain), GFP-tagged (domain or fragment)”: the FRAP, t½ of recovery of GFP-tagged G2L3-ΔCH on MTs in NIH3T3 cells in experiment [1] came to 15.3 s.
“G2L3-C-term (C terminus of GAS2-like 3) (domain or fragment)” yielded an FRAP, t½ of recovery of GFP-tagged G2L3-C-term on MTs in NIH3T3 cells in experiment [1] of 3.9 s.
For “G2L3-ΔGAR (GAS2-like 3 lacking the GAR domain), GFP-tagged (from UniProt Q86XJ1 1-694) (natural protein)”, the FRAP, t½ of recovery of GFP-tagged G2L3-ΔGAR on MTs in NIH3T3 cells in experiment [1] was found to be 6 s.
Substance “G2L3-CH (calponin homology domain of GAS2-like 3) (from UniProt Q86XJ1 48-168) (domain or fragment)” showed an FRAP, t½ of recovery of GFP-tagged G2L3-CH on actin filaments in NIH3T3 cells in experiment [2] of 28.5 s.

These data come from article PMC3137072.
